According to patent publication US9555076B2, “Neuregulin based methods and compositions for treating cardiovascular diseases” (Zensun (Shanghai) Science & Technology, Co., Ltd., priority 2002, dated 2017):
Values joined by “and” are separate entries in the source; they are usually repeats but may differ in a detail not shown here. Identical values can stand only once.

Tested on: heart failure in rat caused by ligation of coronary artery
Test: Echocardiography heart function, heart failure by ligation of coronary artery
Format: in vivo, SD rat
Description: Route of drug administration: in both testing drug group and model group the drug was injected into the tail vein once per day for consecutive 5 days. Echocardiography was performed at the 6th day prior to drug administration, then continuously injected for 5 days. Volume of each drug injection was 0.4 ml/100 g body weight.
After anesthesia with intra-abdominal injection of 100 mg/kg ketamine, the rat was fixed on rat plate in supine position, disinfection of the neck region with bromo-geramine was carried out after depilating. Midline incision was made, trachea was found after separating the anterior cervical muscle, 18 G arterial indwelling trochar was inserted into the trachea at the level of 3-5 tracheal cartilage, took out the stylet, push the plastic cannula 1-2 cm further into the trachea, fixed it for later connection with ventilator for small animal (tidal volume was about […], frequency was 80/min). […] Then closed the chest wall, block the opening of the ventilator to inflate the lungs, forcefully pressed the chest to drive out the air, then sutured the chest muscle and skin. Monitoring the respiration, after spontaneous respiration recovered, withdrawn the ventilator, took the animal back to its cage for breeding. In the pseudo-operation group, only the pericardium was tore open, but without the coronary artery ligation.
Echocardiograph was performed for the operated rat at about 6 days postoperatively, those animals with about 50% reduction of EF value were randomly divided into groups, the EF value of each group was all about 50%, then drug administration began.
Those animals with EF value of about 50% were randomly divided into model group (negative group) and 3-dosage level testing drug groups with 12-13 animals in each group. Route of drug administration in testing drug group and model group was injection into the tail vein, once every day for consecutive 5 days. After echocardiography at the 6th day, another 5 days of consecutive drug administration was carried out. Drug volume of each injection was 0.4 ml/100 g body weight.
Echocardiography was performed under anesthesia with ketamine after the legation and prior to drug administration and at the 6th day, 11th day of drug administration, the major index included: • EF: heart ejection fraction, reflecting ejection function of ventricle; • FS: ventricular short axis shortening rate, reflecting contraction function of ventricle; • LVDd: diastolic maximal inner diameter of left ventricle (cm); • LVDs: systolic minimal inner diameter of left ventricle (cm). 6.3.3.2 Determination of the Content of Plasma Renin-angiotensin-aldosterone

[1] = 5 μg/kg group, prior to drug administration, (1)
[2] = 5 μg/kg iv 10 qd, 10 days after the drug administration, (II)
[3] = 5 μg/kg iv qd × 5, 5 days after the drug administration, (1)
[4] = 5 μg/kg iv qd × 5, 5 days after the drug administration, (II)
[5] = 5 μg/kg iv qd × 10, 10 days after the drug administration, (1)
[6] = 5 μg/kg, Table 4, titled 10 days after the drug administration, (II)
[7] = 10 μg/kg group, prior to drug administration, (1)
[8] = 10 μg/kg iv 10 qd, 10 days after the drug administration, (II)
[9] = 10 μg/kg iv qd × 5, 5 days after the drug administration, (1)
[10] = 10 μg/kg iv qd × 5, 5 days after the drug administration, (II)
[11] = 10 μg/kg iv qd × 10, 10 days after the drug administration, (1)
[12] = 10 μg/kg, Table 4, titled 10 days after the drug administration, (II)
[13] = 20 μg/kg group, prior to drug administration, (1)
[14] = 20 μg/kg iv 10 qd, 10 days after the drug administration, (II)
[15] = 20 μg/kg iv qd × 5, 5 days after the drug administration, (1)
[16] = 20 μg/kg iv qd × 5, 5 days after the drug administration, (II)
[17] = 20 μg/kg iv qd × 10, 10 days after the drug administration, (1)
[18] = 20 μg/kg, Table 4, titled 10 days after the drug administration, (II)

B1: rhNRG-1 β: Recombinant human neuregulin fragment of 61 amino acid (SEQ ID NO:4), 3 disulfide bonds, expressed in E. coli (protein, listed as Homo sapiens)
chain: SHLVKCAEKEKTFCVNGGECFMVKDLSNPSRYLCKCPNEFTGDRCQNYVMASFYKAEELYQ
modifications: disulfide (positions not given here)
B1 showed an EF [1] of 49.3%, an FS [1] of 22.0% and an LVDd [1] of 0.761 cm. For the same molecule, the LVDs [1] was 0.596 cm, the EF [2] was 57.90% and the FS [2] was 29.26%. The LVDd [2] was 0.70 cm, the LVDs [2] was 0.53 cm and the EF [3] was 62.9±8.4% and 62.90%. The FS [3] was 30.3±6.1% and 30.32%, the LVDd [3] was 0.73 cm and the LVDs [3] was 0.54 cm. The EF [4] was 56.76%, the FS [4] was 28.35% and the LVDd [4] was 0.74 cm. For the same molecule, the LVDs [4] was 0.58 cm, the EF [5] was 59.2±12.4% and 59.2% and the FS [5] was 28.4±8.6% and 28.4%. For the same molecule, the LVDd [5] was 0.72 cm, the LVDs [5] was 0.55 cm and the EF value (5 μg/kg, 5-day after drug administration and 35-day after drug withdrawal) was 69.9 ± 28.6%. For the same molecule, the EF value (5 μg/kg, 5-day after drug administration, long-term monitoring) was 75.8 ± 15.3%, the EF [6] was 50.81% and the FS [6] was 22.83%. For the same molecule, the LVDd [6] was 0.66 cm, the LVDs [6] was 0.51 cm and the EF [7] was 49.5%. For the same molecule, the FS [7] was 22.1%, the LVDd [7] was 0.709 cm and the LVDs [7] was 0.555 cm. It also gave an EF [8] of 66.54%, an FS [8] of 34.28% and an LVDd [8] of 0.68 cm. The LVDs [8] was 0.49 cm, the EF [9] was 64.4±12.9% and 64.3±12.8% and 64.35% and the FS [9] was 32.0±9.5% and 32.01%. It also gave an LVDd [9] of 0.71 cm, an LVDs [9] of 0.51 cm and an EF [10] of 56.51%. The FS [10] was 26.53%, the LVDd [10] was 0.72 cm and the LVDs [10] was 0.54 cm. The EF [11] was 61.4±15.0% and 61.4%, the FS [11] was 30.3±10.4% and 30.3% and the LVDd [11] was 0.7 cm. It also gave an LVDs [11] of 0.51 cm, an EF value (10 μg/kg, 5-day after drug administration and 35-day after drug withdrawal) of 63.8 ± 23.8% and an EF value (10 μg/kg, 5-day after drug administration, long-term monitoring) of 77.3 ± 11.6%. The EF [12] was 51.67%, the FS [12] was 23.27% and the LVDd [12] was 0.64 cm. For the same molecule, the LVDs [12] was 0.49 cm, the EF value (10 μg/kg, after ligation prior to drug administration, long-term monitoring) was 52.2 ± 12.8% and the EF [13] was 49.3%. The FS [13] was 21.7%, the LVDd [13] was 0.730 cm and the LVDs [13] was 0.575 cm. For the same molecule, the EF [14] was 70.22%, the FS [14] was 36.49% and the LVDd [14] was 0.65 cm. For the same molecule, the LVDs [14] was 0.42 cm, the EF [15] was 71.1±12.0% and 71.07% and the FS [15] was 36.9±9.7% and 36.88%. The LVDd [15] was 0.70 cm, the LVDs [15] was 0.46 cm and the EF [16] was 65.47%. For the same molecule, the FS [16] was 34.23%, the LVDd [16] was 0.68 cm and the LVDs [16] was 0.46 cm. For the same molecule, the EF [17] was 75.7±10.8% and 75.7%, the FS [17] was 41.3±11.0% and 41.3% and the LVDd [17] was 0.6 cm. It also gave an LVDs [17] of 0.5 cm, an EF value (20 μg/kg, 5-day after drug administration, long-term monitoring) of 79.2 ± 4.7 % and an EF [18] of 52.29%. It also gave an FS [18] of 23.89%, an LVDd [18] of 0.74 cm and an LVDs [18] of 0.56 cm. The EF value (20 μg/kg, after ligation prior to drug administration, long-term monitoring) was 52.4 ± 13.8%.
